Source: US20060084097

B1: S. cerevisiae ATE1 Arg-tRNA-protein transferase C-terminally tagged with His6 (protein)
chain: MSDRFVIWAPSMHNEPAAKCGYCHGNKGGNMDQLFALDSWAHRYMNKMDVVKIENCTIGSFVEHMDVATYDRMCNMGFRRSGKFLYKVDPLRNCCRLYTIRTAPQELNMTKELKKCISRFATRITSEDYCPAAVASSDFVGKIVNAEMNSKTFYTRFEPALYSEEKYHLFVKYQEKVHQDYNNSPKSFKRFLCDTPFGPEAVLGTQESWEQLNNWQRMKPGEKLKHMGPVHECYYYEGKLIAITVSDILPSGISSVYFIWDPDYSKWSLGKLSALRDLAIIQRTNLQYYYLGYYIEDCPKMNYKANYGAEVLDVCHSKYIPLKPIQDMISRGKLFVIGEEETKVTKELYLVDSETGRGEGFPTDNVVKYKNIAEEIYGVGGCAFKSANESALELKELYGIPYEEEDLDTIYHLKEHNGHAPNGIPNVVPGLLPLWELLDIMQSGKITDLEGRLFLFEIETEGIRPLINFYSEPPNVKKRICDVIRLFGFETCMKAVILYSEQMHHHHHH
B2: mouse ATE1-1 R-transferase C-terminally tagged with the polyoma and His6 epitopes (protein)
chain: MASWSAPSPSLVEYFEGQTSFQCGYCKNKLGSRSYGMWAHSMTVQDYQDLIDRGWRRSGKYVYKPVMDQTCCPQYTIRCHPLQFQPSKSHKKVLKKMLKFLAKGEISKGNCEDEPMDSTVEDAVDGDFALINKLDIKCDLKTLSDLKGSIESEEKEKEKSIKKEGSKEFIHPQSIEEKLGSGEPSHPIKVHIGPKPGKGADLSKPPCRKAREMRKERQRLKRMQQASAAASEAQGQPVCLLPKAKSNQPKSLEDLIFQSLPENASHKLEVRVVRSSPPSPQFRATFQESYQVYKRYQMVVHKDPPDKPTVSQFTRFLCSSPLEAEHPADGPECGYGSFHQQYWLDGKIIAVGVLDILPYCVSSVYLYYDPDYSFLSLGVYSALREIAFTRQLHEKTSQLSYYYMGFYIHSCPKMRYKGQYRPSDLLCPETYVWVPIEQCLPSLDNSKYCRFNQDPEAEDEGRSKELDRLRVFHRRSAMPYGVYKNHQEDPSEEAGVLEYANLVGQKCSERMLLFRHHHHHHH

Key:
[1] = biological target: T1, 8-residue Cys-peptide (CHGSGAWL)
T1 chain: CHGSGAWL

[2] = biological target: T2, 8-residue Asp-peptide (DHGSGAWL)
T2 chain: CHSGAWL

[3] = biological target: T3, CysO3H-peptide
T3 chain: CHGSGAWL

[4] = biological target: Val-RGS4 (X-RGS4-flag, X=Val)
[5] = biological target: Cys-RGS4 (X-RGS4-flag, X=Cys)
[6] = biological target: Asp-RGS4 (X-RGS4-flag, X=Asp)

Protein | arginylation of peptide (capillary electrophoresis) [1] | arginylation of peptide (capillary electrophoresis) [2] | arginylation of peptide (capillary electrophoresis) [3] | 3H-arginine conjugation (SDS-PAGE and fluorography) [4] | arginylation of peptide (capillary electrophoresis), pH 9.0 [1] | arginylation of peptide (capillary electrophoresis, MALDI-TOF MS), pH 7.5 [1] | 3H-arginine conjugation (SDS-PAGE and fluorography) [5] | 3H-arginine conjugation (SDS-PAGE and fluorography) [6] | arginylation of peptide (capillary electrophoresis, MALDI-TOF MS), pH 7.5 [2] | arginylation of peptide (capillary electrophoresis, MALDI-TOF MS), pH 7.5 [3]
B1 | Yeast R-transferase efficiently arginylated CysO3H-peptide, but not Cys-peptide | The same results were obtained when mouse ATE1-1 was replaced, in the above assays, with purified S. cerevisiae ATE1 R-transferase | Yeast R-transferase efficiently arginylated CysO3H-peptide, but not Cys-peptide |  |  |  |  |  |  | 
B2 |  |  |  | Val-RGS4 was not arginylated | arginylation of Cys-peptide was undetectable even at pH 9.0, in contrast to arginylation of CysO3H-peptide and Asp-peptide | the Cys-peptide was not arginylated | a virtually complete dependence of the in vitro arginylation of Cys-RGS4 on its prior exposure to a donor of NO | Asp-RGS4 was efficiently arginylated irrespective of NO pretreatment | the Asp-peptide and the CysO3H-peptide were efficiently arginylated | the Asp-peptide and the CysO3H-peptide were efficiently arginylated
